The record followed here is patent publication US11739161B2, “Methods for treating and diagnosing prostate cancer” (Tufts Medical Center, Inc., priority 2017, dated 2023).

Common to all, as to type: cell-based, human
Experiment [1] has as its system AKT and S6 phosphorylation in DU145 cells. As to the kind of experiment: RNASE4-induced phosphorylation of AKT and S6 (immunoblot). The settings on record: serum-starved DU145, RNASE4 1 μg/ml, time course. The protocol:
(§1) FIGS. 10A-E. RNASE4 induces prostate cancer cell proliferation and phosphorylation of AKT and S6. (A and B) Exogenous RNASE4 (1 μg/ml) stimulates cell proliferation (A) and cell cycle progression (B) of DU145 cells cultured in the presence of 2% FBS. Cell numbers were determined by MTT assay. Cell cycle status was determined by flow cytometry after 24 hour incubation with RNASE4. (C) Time course of AKT and S6 phosphorylation of serum-starved DU145 cells by RNASE4 (1 μg/ml). Left panels, immunoblots; right panels, quantification of p-AKT and p-S6 normalized to total AKT and S6 by Image J analysis. […] Cells were pre-incubated with the inhibitors at the indicated concentrations for 1 hour prior to be stimulated by 1 μg/ml of RNASE4 for 5 minutes. Top panels, immunoblots; bottom panels, Image J quantification of p-AKT and p-S6 normalized to total AKT and S6. (E) Effect of AKT inhibitor MK-2206, PI3K inhibitors Wortmannin and LY294002, and mTOR inhibitor Rapamycin on RNASE4-induced cell proliferation. DU145 cells were serum-starved overnight, incubated with the inhibitors for 1 hour, and then treated with RNASE4 (1 μg/ml) for three days. Cell numbers were determined by MTT assay. Data shown are from a representative experiments in triplicates of 3 independent repeats. Error bars indicate SEM. **P≤0.01, by unpaired two-tailed Student's t test.
FIGS. 12A-F. RNASE4 induces AXL phosphorylation. (A) Human phospho-receptor tyrosine kinase (RTK) antibody array analysis. Serum-starved DU145 cells were treated with or without 1 μg/ml of RNASE4 for 5 minutes. A total of 1.5 mg cell lysate protein was blotted on each array membrane. […] (B) Immunoblot analysis of RNASE4-stimulated AXL phosphorylation. DU145 cells were serum-starved overnight and treated with 1 μg/ml of RNASE4 for the indicated time. Cell lysates were analyzed by antibodies against total AXL and phospho-AXL, with β-actin as the loading control. Left panels, immunoblots; right panel, Image J quantification of p-AXL normalized to total AXL. (C) Immunoblot analysis of phospho-AXL in response to stimulation by ANG, RNase A, and RNASE4. DU145 cells were serum-starved overnight and treated with 1 μg/ml of ANG, RNase A, or RNASE4 for 15 minutes. Left panels, immunoblots; right panel, quantification. (D) Effect of AXL inhibitor R428 on RNASE4-induced cell proliferation. Serum-starved DU145 cells were incubated with 1 or 3 μM R428 for 3 hours and then stimulated by 1 μg/ml of RNASE4 for 3 days. Cell numbers were determined by MTT assay. Data shown are means±SEM of a representative experiment (in triplicates) of 3 independent repeats. **P≤0.01 and ***P≤0.001, by unpaired two-tailed Student's t test. (E) Effect of AXL inhibitor R428 on RNASE4-induced AKT and P6 phosphorylation. Serum-starved DU145 cells were incubated with 1 or 3 μM R428 for 3 hours and then stimulated by 1 μg/ml of RNASE4 for 5 minutes. Cell lysates were analyzed for AKT and P6 phosphorylation by immunoblotting. Top panels, immunoblots; bottom panels, quantification of phospho-AKT and phospho-S6 by Image J analyses normalized to total AKT and P6, respectively. (F) Schematic presentation of proposed involvement of AXL in RNASE4-stimulated cellular events.

The test system of the next experiment is DU145 cells. As to the kind of experiment: RNASE4-induced cell proliferation (MTT assay). The settings on record: exogenous RNASE4 1 μg/ml, DU145, 2% FBS. The protocol: as §1
FIGS. 12A-F. RNASE4 induces AXL phosphorylation. (A) Human phospho-receptor tyrosine kinase (RTK) antibody array analysis. Serum-starved DU145 cells were treated with or without 1 μg/ml of RNASE4 for 5 minutes. […] Cell lysates were analyzed by antibodies against total AXL and phospho-AXL, with β-actin as the loading control. Left panels, immunoblots; right panel, Image J quantification of p-AXL normalized to total AXL. […] Left panels, immunoblots; right panel, quantification. […] Cell numbers were determined by MTT assay. […] Cell lysates were analyzed for AKT and P6 phosphorylation by immunoblotting. Top panels, immunoblots; bottom panels, quantification of phospho-AKT and phospho-S6 by Image J analyses normalized to total AKT and P6, respectively. […]

For the next experiment, the system named is LNCaP cells. As to the kind of experiment: RNASE4 knockdown, cell proliferation (Coulter counter). To be noted: exogenous RNASE4 1 μg/ml. The source says:
FIGS. 15A-D. RNASE4 knockdown inhibits LNCaP cell proliferation in vitro and colony formation in soft agar. (A) Immunoblot analysis of RNASE4 in LNCaP cells stably transfected with shControl, shRNASE4-1, and shRNASE4-2. (B) qRT-PCR analysis of RNASE4 mRNA normalized to GAPDH in LNCaP cells stably transfected with shControl, shRNASE4-1, and shRNASE4-2. (C) Effect of RNASE4 knockdown on LNCaP cell proliferation. Cell numbers were counted by Coulter counter. Exogenous RNASE4, when presented, was at the concentration of 1 μg/ml. Data shown are from a representative experiment in triplicates of 3 independent experiments. (D) Effects of RNASE4 knockdown on colonies formation and growth of LNCaP cells in soft agar. The same numbers of control and RNASE4 knockdown cells were seeded in soft agar, and grown in the absence or presence of 1 μg/ml of RNASE4 for 14 days. Colonies were counted and size measured on a Nikon Eclipse ti microscope. Top panels, representative images of colonies; scale bars=100 μm. Bottom panels, quantification of LMCaP cell colonies and sizes in soft agar. Data shown are means±SEM of five randomly selected fields per dish from a representative experiment. **P≤0.01 and ***P≤0.001, by two-tailed Student's t test.
Lentiviral mediated shRNA system (pGIPZ, Open Biosystems) was used to generate control and RNASE4 knockdown cell lines. […]

B1: RNASE4: recombinant human RNASE4 protein from pET11 expression in E. coli, purified by reversed-phase HPLC; added exogenously (protein, UniProt P34096 29-147, looked up)
Ribonuclease 4: QDGMYQRFLRQHVHPEETGGSDRYCNLMMQRRKMTLYHCKRFNTFIHEDIWNIRSICSTTNIQCKNGKMNCHEGVVKVTDCRDTGSSRAPNCRYRAIASTRRVVIACEGNPQVPVHFDG
Take B1: in experiment [1], the “activation (phosphorylation) of AKT and S6” value is “rapidly and continuously activated”. Also, in the experiment on DU145 cells, the cell proliferation entry was “stimulates”. Also, the “rescue of the effect of RNASE4 knockdown on cell proliferation” value in the experiment with LNCaP cells is “able to rescue”.
